In the Human Domainome abundance scans (Beltran et al. 2025):
± gives the uncertainty stated by the source.

B1: POU domain, class 4, transcription factor 2, residues 256 to 327; numbered along this chain, Q12837 (parent)
chain: RDLEAFAERFKQRRIKLGVTQADVGSALANLKIPGVGSLSQSTICRFESLTLSHNNMIALKPILQAWLEEAE
B2: Retinoic acid receptor beta, residues 85 to 161; numbered along this chain, P10826 (parent)
chain: YKPCFVCQDKSSGYHYGVSACEGCKGFFRRSIQKNMIYTCHRDKNCVINKVTRNRCQYCRLQKCFEVGMSKESVRND

Variants of: B1
Test: abundance fitness (aPCA) (normalised: wild type 0, dead -1); higher = more abundant; growth selection in yeast, the domain comes from the species named
Settings: Homo sapiens

Variant | abundance fitness
L17S | -0.565 ± 0.074
L17P | -0.974 ± 0.17
L17W | -0.589 ± 0.095
L17T | -0.272 ± 0.11
L17G | -0.884 ± 0.15
Q21M | -0.39 ± 0.097
Q21C | -0.024 ± 0.097
H54P | -0.079 ± 0.051
H54I | -0.047 ± 0.18
H54R | 0.081 ± 0.047
H54Q | 0.034 ± 0.06
H54D | -0.183 ± 0.21
M57Q | -0.859 ± 0.21
M57A | -0.306 ± 0.13
M57E | -0.565 ± 0.086
M57H | -0.547 ± 0.16
M57L | -0.157 ± 0.062
G18L | -0.598 ± 0.083
G18N | -0.82 ± 0.26
G18S | -0.652 ± 0.078
L50A | 0.005 ± 0.061
L50F | -0.088 ± 0.11
L50Y | -0.478 ± 0.37
L50W | -0.791 ± 0.19
L50H | -0.057 ± 0.081
K61W | -0.125 ± 0.08

Variant | abundance fitness
K61E | -0.32 ± 0.095
K61M | 0.037 ± 0.093
K61G | -0.47 ± 0.1
K61A | -0.178 ± 0.07
K61P | -0.802 ± 0.17
E4F | -0.251 ± 0.18
E4M | -0.004 ± 0.047
E4P | -0.335 ± 0.057
W67R | -0.755 ± 0.36
I44F | -0.913 ± 0.41
I44P | -0.923 ± 0.17
I44E | -0.652 ± 0.37
I44L | -0.392 ± 0.087
R1C | -0.445 ± 0.14
R1T | -0.186 ± 0.14
G37N | -0.309 ± 0.28
G37V | -0.269 ± 0.067
G37R | -0.111 ± 0.055
L60S | -0.77 ± 0.11
L60F | -0.29 ± 0.14
L60I | 0.201 ± 0.28
L60D | -0.614 ± 0.21
L60W | -0.729 ± 0.14
D2Y | -0.171 ± 0.37
D2N | 0.077 ± 0.14
D2H | -0.497 ± 0.33

Variant | abundance fitness
D2F | -0.376 ± 0.2
D2A | -0.241 ± 0.074
R14K | -0.632 ± 0.42
R14G | -1.07 ± 0.21
R14S | -0.904 ± 0.1
R14Q | -0.819 ± 0.18
R14L | -0.847 ± 0.095
R14Y | -0.594 ± 0.32
R14T | -0.698 ± 0.1
E70A | -0.058 ± 0.11
E70I | -0.156 ± 0.24
E70V | -0.186 ± 0.082
E70S | -0.11 ± 0.063
T43R | -0.632 ± 0.072
T43I | 0.207 ± 0.23
L3P | -0.558 ± 0.076
L3R | -0.74 ± 0.1
L3H | -0.368 ± 0.11
L3Q | -0.437 ± 0.078
L3G | -0.947 ± 0.14
S38D | -0.277 ± 0.12
S38T | -0.083 ± 0.082
P62Q | -0.623 ± 0.16
P62M | -0.811 ± 0.29
P62V | -0.726 ± 0.11
P62D | -0.18 ± 0.33

Variant | abundance fitness
I33V | 0.008 ± 0.055
I33P | -0.357 ± 0.1
I33K | -0.421 ± 0.094
I33N | -0.434 ± 0.16
I33W | -0.414 ± 0.099
I33H | -0.438 ± 0.17
I33S | -0.274 ± 0.048
D23A | -0.172 ± 0.069
D23E | -0.057 ± 0.16
L31G | -0.572 ± 0.16
L31R | -0.081 ± 0.061
L31F | -0.018 ± 0.16
L31P | -0.382 ± 0.098
S53N | -0.605 ± 0.29
S53K | -0.738 ± 0.35
S53F | -0.882 ± 0.2
E72A | -0.617 ± 0.28
S26T | -0.08 ± 0.16
S26E | 0.048 ± 0.11
S26N | 0.239 ± 0.2
S26I | -0.275 ± 0.18
S26D | -0.076 ± 0.12
L68Q | -0.107 ± 0.22
L68R | -0.847 ± 0.43
L68P | -0.589 ± 0.39

Variants of: B2
Test: as above
Settings: Homo sapiens

Variant | abundance fitness
G68V | -0.81 ± 0.12
C46E | -0.474 ± 0.13
Y14S | -0.044 ± 0.051
Q33I | 0.028 ± 0.088
K44G | 0.035 ± 0.033
K44R | 0 ± 0.035
K44M | 0.032 ± 0.055
K44A | -0.004 ± 0.046
K25N | 0.133 ± 0.069
T52I | -0.053 ± 0.079
S70I | 0.262 ± 0.14
S70F | -0.111 ± 0.089
V47Y | 0.107 ± 0.053
K50T | 0.125 ± 0.058
V74K | -0.219 ± 0.065
K2P | -0.169 ± 0.11
K34R | -0.122 ± 0.035
Q8E | 0.111 ± 0.045
C56S | -0.749 ± 0.11
H41G | -0.024 ± 0.03
L61S | -0.995 ± 0.15
L61F | -0.13 ± 0.083

Variant | abundance fitness
P3S | 0.031 ± 0.055
G26Y | -0.467 ± 0.22
S11Y | -0.407 ± 0.21
S12I | -0.096 ± 0.14
S12G | -0.242 ± 0.038
S12M | -0.102 ± 0.076
N54K | 0.183 ± 0.052
N54G | -0.007 ± 0.038
N54Y | 0.112 ± 0.077
C40S | -0.885 ± 0.11
Y58A | 0.107 ± 0.046
N35D | 0.128 ± 0.062
G23T | -0.008 ± 0.053
G23Y | -0.452 ± 0.11
S19F | -0.09 ± 0.1
Q62M | -0.033 ± 0.051
E72C | -0.075 ± 0.081
R75G | 0.09 ± 0.034
D77I | -0.06 ± 0.11
V18T | 0.103 ± 0.17
C59H | -0.817 ± 0.2
G17H | -0.292 ± 0.13

Variant | abundance fitness
F27Q | -0.97 ± 0.21
I37T | -0.098 ± 0.057
N49K | -0.345 ± 0.062
N49W | -0.327 ± 0.071
I32R | -0.648 ± 0.073
D9V | -0.753 ± 0.1
M69E | -0.751 ± 0.21
M69K | -0.983 ± 0.35
Y16C | -0.134 ± 0.1
Q57N | -0.021 ± 0.098
Q57C | 0.078 ± 0.057
C7E | -1.23 ± 0.24
V51W | 0.282 ± 0.06
V51C | -0.249 ± 0.11
R42C | 0.145 ± 0.06
R42V | 0.177 ± 0.034
C24M | -0.817 ± 0.2
E66D | 0.096 ± 0.075
R60P | -0.722 ± 0.14
R60I | -0.653 ± 0.16
